Source: the RNAGym collection of RNA variant scans (doi:10.1073/pnas.2313332121)
Fewer inactive variants are shown than the library holds.

B1: TPR 5TU (parent)
chain: GGAUCUUCUCGAUCUAACAAAAAAGACAAAUCUGCCACAAAGCUUGAGAGCAUCUUCGGAUGCAGAGGCGGCAGCCUUCGGUGGCGCGAUAGCGCCAACGUUCUCAACUAUGACACGCAAAACGCGUGCUCCGUUGAAUGGAGUUUAUCAUG

Variants of: B1
Experiment: polymerase ribozyme fitness, log enrichment relative to wild type (log ratio); higher = more active; in vitro selection for triplet polymerase activity
How it was run: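 The heterodimeric triplet polymerase ribozyme's subunits were each mutagenized into PCR-built libraries and transcribed. Every library was selected once, in triplicate, by annealing with a biotinylated primer, the partner subunit and triplets, incubating frozen at −7 °C, gel-excising extended constructs, capturing on streptavidin beads and running RT-PCR. Input and output libraries were Illumina-sequenced, with genotypes kept only at ≥10 input reads and ≥1 read per output. Fitness, from inverse-variance-weighted replicate averages, is the base-2 logarithm of genotype enrichment over wild-type enrichment.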

Variant | polymerase ribozyme fitness (log ratio)
A39U C69U U82C C96U | -2.44
C14A G59U G94U C125G U134A U151G | ≤ -4.2
U13C C14G G88A | -4
A37G G136A U146C | -1.88
A49C C96A U102G G141U | 0.794
A24C C35U C87G A98U C103U C125G | ≤ -4.2
G25C C54U C57U C75U G126A | -2.79
A37G C76U G80U C105U A122U | ≤ -4.2
A17C C93G | -3.8
A24G C43U A73G G83U U101G C105G U127C G140C | ≤ -4.2
A17U G126A | 0.557
U55A G62C G68U C96U A121U | ≤ -4.2
C43G U45G U134C | ≤ -4.2
G117A G141C | -3.29
A26G A41G A60U U90G C99A G143U U151C | ≤ -4.2
C14U A39G C93U G143A | ≤ -4.2
A23C C79U C96U C99A | ≤ -4.2
A19U A20C U109G | -2.07
A24G U55A C57U A73U U82G G92A A97U G141C | ≤ -4.2
G141U U146G | 1.06
A66G G88U A119G U139G | ≤ -4.2

Variant | polymerase ribozyme fitness (log ratio)
A16C A19U C57G A73U A91U G140A U145A | ≤ -4.2
A20U C35U U144C | -2.73
U13C A20U G48C C96G | -2.62
G34U A39U G48A U77G C79G C95U | ≤ -4.2
A41U G70A | -3.15
A19G A20G C43U A47C U55G C87U C105U U145G | ≤ -4.2
A47U G68A U82A A97G | ≤ -4.2
A12U G58C C95A | -1.44
U15A C51U G58U C69G | -1.91
A20U C54U C95U C96A | -2.31
C54G C96U A142C | -3.34
C76A G141C | -2.39
C57G C123G | -0.87
C51U U55G A98U A115G | -3.09
A20U A29G C43U C75U U77G G94C U109G A113U | ≤ -4.2
A26C A29G C51U U53G G68A A142C A150G G152A | ≤ -4.2
U9G U53G C87U A113U C116A G140U | ≤ -4.2
U45A U53C C57U C85A C96A C123U C125A A142C | ≤ -4.2
C69U C93A C103U C116A U148G | ≤ -4.2
A17U A28C U31A | -3.71
A39G G58A U145G | -1.12

Variant | polymerase ribozyme fitness (log ratio)
A39C U78A G84U U90C | ≤ -4.2
A60G U144G | 1.35
G86U C116G | -1.04
C76U U102G | -2.89
U4A G94C | -0.637
C114G G143A | ≤ -4.2
U53A U104G | -1.97
C75G G141C | -4.12
A22U U53A | -1.05
C8A C87G | ≤ -4.2
A19G A26U U45A A52U U61A G70C C85G A115U G141U | ≤ -4.2
C76U A119U | -0.561
C76U G83C U134A A142U | ≤ -4.2
U9G A73G | -4.11
U9G G86U A97U C108G | ≤ -4.2
A23G A37G C95A C118G G140A | ≤ -4.2
C38G C54U C57U U146C | -1.16
A19U A26C A40U C96A A121C | -2.54
A16G A17U A26U A41U C96A U102A G143C | ≤ -4.2
U15C C36A U55A A106U C108U A115G G117U G140A | ≤ -4.2
C93G A113U | -4.11

Variant | polymerase ribozyme fitness (log ratio)
U9G C38U U44C G46A U56A C79G C96A A142G | ≤ -4.2
G50A A52U C76G A150G | ≤ -4.2
A26U G80A | -2.3
C51U G80A G81A A150U | -1.5
A20U A22C C87A G88C A98U A107G | ≤ -4.2
A19G A49G A52C U55A | -4.18
A22U G50C C54A C63G A106U A119G | -3.06
A37U A89C U148A | ≤ -4.2
U55G C76A G92A C108U | ≤ -4.2
A12G C72G G74U G83U U146G | ≤ -4.2
A23U A39G A91C | ≤ -4.2
G65C G92A A137C G141C | ≤ -4.2
A29U A37C U55G U135C | ≤ -4.2
U56G G83A C87G A120U U135C | ≤ -4.2
C87U C125G | -1.53
U6A C79A C99U A107G | ≤ -4.2
C54A G83C | -3.55
C85U G126C | -1.23
U31G A37C C95U U109G G143U G152C | ≤ -4.2
C63A C85U | -0.129
